Measurements reported in patent US20250019439A1 (Adimab, published 2025).

Key:
[1] = biological target: T1, ADI-22523 IgG; assay: BLI; tip anti-CD3 IgG, solution ADI-34145 Fab
T1 construct: anti-CD3 IgG
Experimental: (§1) ForteBio affinity measurements were performed generally as previously described (Estep et al., MAbs. 2013 5(2):270-8). Briefly, ForteBio affinity measurements were performed by loading antibody IgG or Fabs on-line onto AHC sensors. Sensors were equilibrated off-line in assay buffer for 30 minutes and then monitored on-line for 60 seconds for baseline establishment. For avid binding measurement, sensors with loaded antibodies were exposed to IgG or Fab solutions for 3 minutes, afterwards they were transferred to assay buffer for 3 minutes for off-rate measurement. Kinetics data were fit using a 1:1 binding model in the data analysis software provided by ForteBio to obtain equilibrium dissociation constant (KD=koff/kₒₙ) values. In each column, tip-immobilized antibodies are listed first and solution antibodies second.
(§2) CTL-19613 is an IgG1 antibody prepared with anti-CD3 variable domains corresponding with those of clone 12C described in United States Publication Number US 2010/0183615 (e.g., see paragraphs 469-479 and FIG. 25 thereof), which also make up the CD3 binding domain of the bispecific antibody pasotuxizumab. […] In each column, tip-immobilized antibodies are listed first and solution antibodies second.

[2] = biological target: CTL-19613 IgG; assay: BLI; tip anti-CD3 IgG, solution ADI-34145 Fab
Experimental: as §1, §2

[3] = biological target: T2, CTL-19672 IgG; assay: BLI; tip anti-CD3 IgG, solution ADI-34145 Fab
T2 construct: IgG1 with the anti-CD3 variable domains of clone 38E4v1
Experimental: as §1, §2

[4] = biological target: T3, ADI-26906 IgG; assay: BLI; tip anti-CD3 IgG, solution ADI-34145 Fab
T3 construct: anti-CD3 IgG
Experimental: as §1, §2

[5] = biological target: T4, ADI-26913 IgG; assay: BLI; tip anti-CD3 IgG, solution ADI-34145 Fab
T4 construct: anti-CD3 IgG
Experimental: as §1, §2

[6] = biological target: T5, ADI-26920 IgG; assay: BLI; tip anti-CD3 IgG, solution ADI-34145 Fab
T5 construct: anti-CD3 IgG
Experimental: as §1, §2

[7] = biological target: T6, ADI-26916 IgG; assay: BLI; tip anti-CD3 IgG, solution ADI-34145 Fab
T6 construct: anti-CD3 IgG
Experimental: as §1, §2

[8] = biological target: T7, ADI-26906 anti-CD3 bsIgG; assay: BLI; tip anti-CD3 bsIgG, solution ADI-34145 Fab
T7 construct: anti-HER2 IgG with one Fab arm replaced by the anti-CD3 scFv (printed 'Vx-VH', read as VL-VH); S354C and Y349C mutations; also called anti-CD3 bsIgG (ADI-26906 scFv); not shown: scFv linker; anti-HER2 Fab arm (heavy and light chain); hinge and Fc with S354C/Y349C
Experimental: as §1
(§3) Additional analysis was conducted using bispecific antibody formats incorporating anti-CD3 antibody variable domains. Bispecific antibodies were prepared using standard IgG formats (bsIgG) with replacement of Fab arms with anti-CD3 scFvs in Vx-VH orientation and with S354C and Y349C mutations for disulfide stabilization. Antibodies used for Fab arm replacement were anti-HER2 IgG antibodies, with one Fab arm from each replaced by a scFv corresponding to a different anti-CD3 antibody. […] In each column, tip-immobilized antibodies are listed first and solution antibodies second. Anti-CD3 antibodies associated with incorporated scFvs are listed by antibody number.

[9] = biological target: T8, ADI-26913 anti-CD3 bsIgG; assay: BLI; tip anti-CD3 bsIgG, solution ADI-34145 Fab
T8 construct: anti-HER2 IgG with one Fab arm replaced by the anti-CD3 scFv (printed 'Vx-VH', read as VL-VH); S354C and Y349C mutations; also called anti-CD3 bsIgG (ADI-26913 scFv); not shown: scFv linker; anti-HER2 Fab arm (heavy and light chain); hinge and Fc with S354C/Y349C
Experimental: as §1, §3

[10] = biological target: T9, ADI-26920 anti-CD3 bsIgG; assay: BLI; tip anti-CD3 bsIgG, solution ADI-34145 Fab
T9 construct: anti-HER2 IgG with one Fab arm replaced by the anti-CD3 scFv (printed 'Vx-VH', read as VL-VH); S354C and Y349C mutations; also called anti-CD3 bsIgG (ADI-26920 scFv); not shown: scFv linker; anti-HER2 Fab arm (heavy and light chain); hinge and Fc with S354C/Y349C
Experimental: as §1, §3

[11] = biological target: T10, CTL-19672 anti-CD3 bsIgG (In the assay the two domains were one scFv (VL-VH orientation, linker not given). It replaced one Fab arm of an anti-HER2 IgG; S354C and Y349C mutations are stated for disulfide stabilization.); assay: BLI; tip anti-CD3 bsIgG, solution ADI-34145 Fab
T10 construct: anti-HER2 IgG with one Fab arm replaced by the anti-CD3 scFv (printed 'Vx-VH', read as VL-VH); S354C and Y349C mutations; not shown: scFv linker between VL and VH; anti-HER2 heavy and light chains of the other arm; hinge and Fc (with S354C / Y349C)
Experimental: as §1, §3

[12] = biological target: T11, CTL-19613 anti-CD3 bsIgG (In the assay the two domains were one scFv (VL-VH orientation, linker not given). It replaced one Fab arm of an anti-HER2 IgG; S354C and Y349C mutations are stated for disulfide stabilization.); assay: BLI; tip anti-CD3 bsIgG, solution ADI-34145 Fab
T11 construct: anti-HER2 IgG with one Fab arm replaced by the anti-CD3 scFv (printed 'Vx-VH', read as VL-VH); S354C and Y349C mutations; also called anti-CD3 bsIgG (CTL-19613 scFv); not shown: scFv linker between VL and VH; anti-HER2 heavy and light chains of the other arm; hinge and Fc (with S354C / Y349C)
Experimental: as §1, §3

[13] = biological target: T1, ADI-22523 IgG; assay: BLI; tip anti-CD3 IgG, solution ADI-34134 Fab
Experimental: as §1, §2

[14] = biological target: T12, ADI-26927 IgG; assay: BLI; tip anti-CD3 IgG, solution ADI-34134 Fab
T12 construct: anti-CD3 IgG
Experimental: as §1, §2

[15] = biological target: T13, ADI-26928 IgG; assay: BLI; tip anti-CD3 IgG, solution ADI-34134 Fab
T13 construct: anti-CD3 IgG
Experimental: as §1, §2

[16] = biological target: T14, ADI-26941 IgG; assay: BLI; tip anti-CD3 IgG, solution ADI-34134 Fab
T14 construct: anti-CD3 IgG
Experimental: as §1, §2

[17] = biological target: CTL-19613 IgG; assay: BLI; tip anti-CD3 IgG, solution ADI-34134 Fab
Experimental: as §1, §2

[18] = biological target: T3, ADI-26906 IgG; assay: BLI; tip anti-CD3 IgG, solution ADI-34134 Fab
Experimental: as §1, §2

[19] = biological target: T4, ADI-26913 IgG; assay: BLI; tip anti-CD3 IgG, solution ADI-34134 Fab
Experimental: as §1, §2

[20] = biological target: T5, ADI-26920 IgG; assay: BLI; tip anti-CD3 IgG, solution ADI-34134 Fab
Experimental: as §1, §2

[21] = biological target: T15, ADI-26921 IgG; assay: BLI; tip anti-CD3 IgG, solution ADI-34134 Fab
T15 construct: anti-CD3 IgG
Experimental: as §1, §2

[22] = biological target: T6, ADI-26916 IgG; assay: BLI; tip anti-CD3 IgG, solution ADI-34134 Fab
Experimental: as §1, §2

[23] = biological target: T16, ADI-22523 anti-CD3 bsIgG (In the assayed molecule VL and VH are joined as one scFv (printed 'Vx-VH' orientation) by an undisclosed linker and fused to an Fc, paired with an anti-HER2 half-IgG. They are given here as two …); assay: BLI; tip anti-CD3 bsIgG, solution ADI-34134 Fab
T16 construct: anti-HER2 IgG with one Fab arm replaced by the anti-CD3 scFv (printed 'Vx-VH', read as VL-VH); S354C and Y349C mutations; not shown: scFv linker between VL and VH; anti-HER2 heavy and light chains; hinge and Fc with S354C/Y349C
Experimental: as §1, §3

[24] = biological target: T7, ADI-26906 anti-CD3 bsIgG; assay: BLI; tip anti-CD3 bsIgG, solution ADI-34134 Fab
Experimental: as §1, §3

[25] = biological target: T8, ADI-26913 anti-CD3 bsIgG; assay: BLI; tip anti-CD3 bsIgG, solution ADI-34134 Fab
Experimental: as §1, §3

[26] = biological target: T9, ADI-26920 anti-CD3 bsIgG; assay: BLI; tip anti-CD3 bsIgG, solution ADI-34134 Fab
Experimental: as §1, §3

[27] = biological target: T17, ADI-26921 anti-CD3 bsIgG; assay: BLI; tip anti-CD3 bsIgG, solution ADI-34134 Fab
T17 construct: anti-HER2 IgG with one Fab arm replaced by the anti-CD3 scFv (printed 'Vx-VH', read as VL-VH); S354C and Y349C mutations; also called anti-CD3 bsIgG (ADI-26921 scFv); not shown: scFv linker; anti-HER2 Fab arm (heavy and light chain); hinge and Fc with S354C/Y349C
Experimental: as §1, §3

[28] = biological target: T18, ADI-26927 anti-CD3 bsIgG; assay: BLI; tip anti-CD3 bsIgG, solution ADI-34134 Fab
T18 construct: anti-HER2 IgG with one Fab arm replaced by the anti-CD3 scFv (printed 'Vx-VH', read as VL-VH); S354C and Y349C mutations; also called anti-CD3 bsIgG (ADI-26927 scFv); not shown: scFv linker; anti-HER2 Fab arm (heavy and light chain); hinge and Fc with S354C/Y349C
Experimental: as §1, §3

[29] = biological target: T19, ADI-26928 anti-CD3 bsIgG; assay: BLI; tip anti-CD3 bsIgG, solution ADI-34134 Fab
T19 construct: anti-HER2 IgG with one Fab arm replaced by the anti-CD3 scFv (printed 'Vx-VH', read as VL-VH); S354C and Y349C mutations; also called anti-CD3 bsIgG (ADI-26928 scFv); not shown: scFv linker; anti-HER2 Fab arm (heavy and light chain); hinge and Fc with S354C/Y349C
Experimental: as §1, §3

[30] = biological target: T11, CTL-19613 anti-CD3 bsIgG; assay: BLI; tip anti-CD3 bsIgG, solution ADI-34134 Fab
Experimental: as §1, §3

T8 sequence (VH, as listed by the source limits assumed, chain 1 of 2): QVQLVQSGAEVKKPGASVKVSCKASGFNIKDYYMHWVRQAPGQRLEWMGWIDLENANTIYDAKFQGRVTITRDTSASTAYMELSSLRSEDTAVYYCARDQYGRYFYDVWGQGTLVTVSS
T8 sequence (VL, as listed by the source limits assumed, chain 2 of 2): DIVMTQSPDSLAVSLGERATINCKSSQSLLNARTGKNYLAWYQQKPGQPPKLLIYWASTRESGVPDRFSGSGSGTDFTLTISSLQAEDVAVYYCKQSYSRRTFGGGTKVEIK
T7 sequence (VH, as listed by the source limits assumed, chain 1 of 2): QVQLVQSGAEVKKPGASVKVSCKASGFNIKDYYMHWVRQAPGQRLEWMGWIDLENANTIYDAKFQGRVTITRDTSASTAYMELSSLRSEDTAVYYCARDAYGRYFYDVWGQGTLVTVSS
T6 sequence (VH, as listed by the source, chain 1 of 2): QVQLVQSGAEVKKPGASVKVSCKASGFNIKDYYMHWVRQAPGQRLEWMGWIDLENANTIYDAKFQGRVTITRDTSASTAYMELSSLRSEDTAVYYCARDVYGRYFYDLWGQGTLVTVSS
T9 sequence (VH, as listed by the source limits assumed, chain 1 of 2): as the sequence (VH, as listed by the source, chain 1 of 2) above, with A97G, V100A, L108V counted along it
T9 sequence (VL, as listed by the source limits assumed, chain 2 of 2): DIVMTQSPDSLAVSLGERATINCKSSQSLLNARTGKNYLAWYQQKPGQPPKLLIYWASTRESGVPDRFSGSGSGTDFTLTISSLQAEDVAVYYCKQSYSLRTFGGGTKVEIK
T5 sequence (VH, as listed by the source limits assumed, chain 1 of 2): as the sequence (VH, as listed by the source, chain 1 of 2) above, with A97G, V100A, L108V counted along it
T1 sequence (VH, as listed by the source limits assumed, chain 1 of 2): as the sequence (VH, as listed by the source, chain 1 of 2) above, with A56G, A62P, V100G, L108V counted along it
T1 sequence (VL, as listed by the source limits assumed, chain 2 of 2): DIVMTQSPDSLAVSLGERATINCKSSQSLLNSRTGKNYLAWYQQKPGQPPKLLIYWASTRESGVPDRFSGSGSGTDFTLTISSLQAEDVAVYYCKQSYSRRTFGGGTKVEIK
T14 sequence (VH, as listed by the source limits assumed, chain 1 of 2): as the sequence (VH, as listed by the source, chain 1 of 2) above, with N55E, A56G, V100Q, L108V counted along it
T14 sequence (VL, as listed by the source limits assumed, chain 2 of 2): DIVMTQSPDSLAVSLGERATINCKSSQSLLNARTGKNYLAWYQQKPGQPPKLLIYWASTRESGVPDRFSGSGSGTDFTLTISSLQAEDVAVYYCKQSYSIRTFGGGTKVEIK
T17 sequence (VH, as listed by the source limits assumed, chain 1 of 2): as the sequence (VH, as listed by the source, chain 1 of 2) above, with N55E, A56G, V100A, L108V counted along it
T15 sequence (VH, as listed by the source limits assumed, chain 1 of 2): as the sequence (VH, as listed by the source, chain 1 of 2) above, with N55E, A56G, V100A, L108V counted along it
T10 sequence (VH, as listed by the source limits assumed, chain 1 of 2): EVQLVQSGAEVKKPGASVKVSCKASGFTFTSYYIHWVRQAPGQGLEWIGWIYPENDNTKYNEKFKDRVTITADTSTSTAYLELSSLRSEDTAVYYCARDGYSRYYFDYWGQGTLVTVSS
T10 sequence (VL, as listed by the source limits assumed, chain 2 of 2): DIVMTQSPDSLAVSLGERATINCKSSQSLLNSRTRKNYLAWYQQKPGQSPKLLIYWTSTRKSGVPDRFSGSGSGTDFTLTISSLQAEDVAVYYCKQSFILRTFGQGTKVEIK
T16 sequence (VH, as listed by the source limits assumed, chain 1 of 2): as the sequence (VH, as listed by the source, chain 1 of 2) above, with A56G, A62P, V100G, L108V counted along it
T18 sequence (VH, as listed by the source limits assumed, chain 1 of 2): as the sequence (VH, as listed by the source, chain 1 of 2) above, with N55E, A56G, V100R, R103A, L108V counted along it
T12 sequence (VH, as listed by the source limits assumed, chain 1 of 2): as the sequence (VH, as listed by the source, chain 1 of 2) above, with N55E, A56G, V100R, R103A, L108V counted along it
T13 sequence (VH, as listed by the source limits assumed, chain 1 of 2): as the sequence (VH, as listed by the source, chain 1 of 2) above, with N55E, A56G, A97G, V100A, R103L, L108V counted along it
T19 sequence (VH, as listed by the source limits assumed, chain 1 of 2): as the sequence (VH, as listed by the source, chain 1 of 2) above, with N55E, A56G, A97G, V100A, R103L, L108V counted along it

B1: ADI-34145 Fab (Fab, V domains shown)
VH: EVQLLESGGGLVQPGGSLRLSCAASGFTFSSYAMSWVRQAPGKGLEWVSTISGSGGSTYYADSVKGRFTISRDNSKNTLYLQMNSLRAEDTAVYYCARLGGRRGSGSSYYYYYGMDVWGQGTTVTVSS
VL: not shown
notes: Fab made by papain digestion of the IgG
Kd [1]: 3.22 nM
binding result [2]: no binding
binding result [3]: no binding
Kd [4]: 3.25 nM
Kd [5]: 3.15 nM
Kd [6]: 8.97 nM
Kd [7]: 19.4 nM
Kd [8]: 24.4 nM
Kd [9]: 159 nM
Kd [10]: 93.8 nM
binding result [11]: no binding
binding result [12]: no binding

B2: ADI-34134 Fab (Fab, V domains shown)
VH: QVQLVQSGAEVKKPGSSVKVSCKASGGTFSSYAISWVRQAPGQGLEWMGGIIPIFGTANYAQKFQGRVTITADESTSTAYMELSSLRSEDTAVYYCARGAPNYYGSGGYDDGWFDPWGQGTLVTVSS
VL: EIVLTQSPGTLSLSPGERATLSCRASQSVSSDYLAWYQQKPGQAPRLLIYGASSRATGIPDRFSGSGSGTDFTLTISRLEPEDFAVYYCQQFGRVPTFGGGTKVEIK
notes: as for B1
Kd [13]: 5.68 nM
Kd [14]: 38.2 nM
Kd [15]: 185 nM
Kd [16]: 138 nM
binding result [17]: no binding
Kd [18]: 17.8 nM
Kd [19]: 79.8 nM
Kd [20]: 31 nM
Kd [21]: 56.5 nM
Kd [22]: 157 nM
Kd [23]: 10.9 nM
Kd [24]: 27.2 nM
Kd [25]: 74.2 nM
Kd [26]: 28.7 nM
Kd [27]: 37.1 nM
Kd [28]: 48.9 nM
Kd [29]: 110 nM
binding result [30]: no binding
